OD450 data for ten molecules are collected here from patent US20250320312A1 (OXITOPE PHARMA B V, published 2025).

Positions count from the first letter of the chain named.

First the molecules themselves.
B1: PcOxP_DB04_A11 (scFv, V domains shown)
VH: EVQLLESGGGLVQPGGSLRLSCAASGFTFSDYYMEWVRQAPGKGLEWVAASRNKANTYTTEYADSVKGRFTISRDNSKNTLYLQMNSLRAEDTAVYYCARDYYGSSYWYFDVWGQGTLVTVSS
VL: DIVMTQSPDSLAVSLGERATINCTASESVLSSKHKKNYLAWYQQKPGQPPKLLIYGASTRYIGVPDRFSGSGSGTDFTLTISSLQAEDVAVYYCAQFYSYPLTFGGGTKVEIK
notes: scFv in periplasmic extract
B2: PcOxP_DB04_B01 (scFv, V domains shown)
VH: B1 VH with F29Q, Y32F, T57D, S105E
VL: B1 VL with E27V, V29L, L30Y, K36V, N37H, A57P, T59N
notes: scFv in periplasmic extract
B3: PcOxP_DB04_B11 (scFv, V domains shown)
VH: B1 VH with F27D, Y32F, N53W, T57D
VL: B1 VL with V29L, L30Y, K36V, N37H, T59N
notes: scFv in periplasmic extract
B4: PcOxP_DB04_B07 (scFv, V domains shown)
VH: B1 VH with F27P, Y32F, T57G
VL: B1 VL with V29L, L30Y, K36V, N37H, T59N
notes: scFv in periplasmic extract
B5: PcOxP_DB04_B10 (scFv, V domains shown)
VH: B1 VH with F29D, Y32F, T57G
VL: B1 VL with V29L, L30Y, K36V, N37H, T59N, Y61P, A95G
notes: scFv in periplasmic extract
B6: PcOxP_DB04_C11 (scFv, V domains shown)
VH: B1 VH with T57D
VL: B1 VL with V29L, L30Y, K36V, N37H, T59H, Y61Q
notes: scFv in periplasmic extract
B7: PcOxP_DB04_C09 (scFv, V domains shown)
VH: B1 VH with D31S, T57D, G104L
VL: B1 VL with V29L, L30Y, S32P, K36V, N37H, S58E, T59N
notes: scFv in periplasmic extract
B8: PcOxP_DB04_C10 (scFv, V domains shown)
VH: B1 VH with Y32G, S51I, T57D, S106H
VL: B1 VL with V29L, L30Y, K36V, N37H, T59N
notes: scFv in periplasmic extract
B9: PcOxP_DB04_D01 (scFv, V domains shown)
VH: B1 VH with A55G, T57D, E61A
VL: B1 VL with V29L, L30Y, K36V, N37H, T59Q
notes: scFv in periplasmic extract
B10: PcOxP_DB04_B12 (scFv, V domains shown)
VH: B1 VH with T57D
VL: B1 VL with V29L, L30Y, K36V, N37H, T59N, Q96A
notes: scFv in periplasmic extract

For one test, the target named is BSA (UniProt P02769). The experiment in a line: scFv ELISA. Background: ELISA stands for enzyme-linked immunosorbent assay.
Sequence of BSA (P02769 25-607 limits assumed): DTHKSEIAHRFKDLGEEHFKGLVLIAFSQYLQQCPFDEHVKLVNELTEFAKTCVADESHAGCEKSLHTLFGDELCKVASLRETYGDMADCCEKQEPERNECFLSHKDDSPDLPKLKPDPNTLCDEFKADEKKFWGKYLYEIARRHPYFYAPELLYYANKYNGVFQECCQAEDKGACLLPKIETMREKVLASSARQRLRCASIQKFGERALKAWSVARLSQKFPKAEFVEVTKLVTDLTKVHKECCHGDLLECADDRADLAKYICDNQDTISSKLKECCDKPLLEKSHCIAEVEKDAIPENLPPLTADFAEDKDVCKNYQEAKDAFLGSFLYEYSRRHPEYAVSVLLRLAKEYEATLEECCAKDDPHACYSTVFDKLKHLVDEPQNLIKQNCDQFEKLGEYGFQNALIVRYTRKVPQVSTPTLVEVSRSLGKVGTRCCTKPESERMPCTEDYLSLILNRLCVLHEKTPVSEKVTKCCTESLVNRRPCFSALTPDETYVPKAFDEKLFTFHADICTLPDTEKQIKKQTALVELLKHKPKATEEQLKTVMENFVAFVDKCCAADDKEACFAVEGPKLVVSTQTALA
For B1, the OD450 worked out at 0.1 OD450.
The same measure, in the same setting: the value for B2 was 0.06 OD450; that for B3 was 0.08 OD450.
Take B4: the OD450 amounted to 0.09 OD450.
Molecule B5 returned an OD450 of 0.06 OD450.
B6 yielded an OD450 of 0.07 OD450.
With B7, the OD450 is 0.11 OD450.
On to B8, for which the OD450 was determined as 0.08 OD450.
Molecule B9 showed an OD450 of 0.07 OD450.
For the molecule B10, the OD450 came to 0.09 OD450.

The target in the next test is Peptide 5: Biotin-…-[Tyr(PC)]-acid. The experiment in a line: scFv ELISA.
Regarding B1, the OD450 was determined as 1.6 OD450.
B2 yielded an OD450 of 0.78 OD450.
In turn, B3 returned an OD450 of 0.31 OD450.
Consider B4, for which the OD450 turned out to be 1.33 OD450.
Consider B5, for which the OD450 amounted to 1.56 OD450.
Turning to B6, the OD450 is 1.34 OD450.
Take B7: the OD450 was 1.21 OD450.
B8 had an OD450 of 1.03 OD450.
The same measure, in the same setting: next, B9: 1.66 OD450; B10: 0.34 OD450.

For a further test, the target named is Peptide 1: Biotin-…-[Tyr(PC)]-acid. The test can be described thus: scFv ELISA.
In turn, B1 came in with an OD450 of 0.64 OD450.
Molecule B2 had an OD450 of 0.45 OD450.
B3 displayed an OD450 of 0.26 OD450.
For the molecule B4, the OD450 stood at 0.93 OD450.
Molecule B5 gave an OD450 of 1.05 OD450.
Regarding B6, the OD450 worked out at 0.81 OD450.
Molecule B7 had an OD450 of 0.55 OD450.
Regarding B8, the OD450 was 0.54 OD450.
For B9, the OD450 amounted to 1.23 OD450.
On the same count and under the same terms, next, B10: 0.13 OD450.

The target of another test is T1, Peptide 8: Biotin-AEAAAKEAAAKEAAAKEAAAKAAA-Tyr-acid (N-terminal biotin; C-terminal acid).
T1 construct: Control peptide without PC
T1 peptide: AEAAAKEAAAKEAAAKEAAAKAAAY
The experiment in a line: scFv ELISA. In outline: (§1)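 Bound scFv was read as OD450 after HRP–anti-V5 detection, TMB development and HCl stop. PPE with BSA was incubated 1 h at RT on BSA-blocked wells coated overnight at 4° C. with peptide, or on streptavidin wells loaded 1 h with biotinylated PC-peptides at 1 μg/mL.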
In turn, B1 had an OD450 of 0.08 OD450.
In turn, B2 returned an OD450 of 0.05 OD450.
On the same count and under the same terms, next, B3: 0.05 OD450.
Same read-out and setting: next, B4: 0.05 OD450; B5: 0.04 OD450; B6: 0.04 OD450.
Regarding B7, the OD450 came out at 0.06 OD450.
Consider B8, for which the OD450 was determined as 0.05 OD450.
B9 registered an OD450 of 0.06 OD450.
Still for that read-out and setting: next, B10: 0.04 OD450.

Another test has as its target T2, Peptide 4: Biotin-AGGGGSGGGGSGGGGSAAA-Tyr-acid (N-terminal biotin; C-terminal acid).
T2 construct: Control peptide without PC
T2 peptide: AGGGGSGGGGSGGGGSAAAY
The test can be described thus: scFv ELISA. In outline:
as §1
B1 gave an OD450 of 0.07 OD450.
Still for that read-out and setting: next, B2: 0.05 OD450; B3: 0.05 OD450; B4: 0.06 OD450.
Molecule B5 yielded an OD450 of 0.05 OD450.
Molecule B6 returned an OD450 of 0.05 OD450.
B7 returned an OD450 of 0.07 OD450.
The molecule B8 had an OD450 of 0.06 OD450.
In turn, B9 showed an OD450 of 0.06 OD450.
In turn, B10 gave an OD450 of 0.04 OD450.
